± gives the uncertainty stated by the source.
Experiment: protein stability index of a GFP-peptide fusion (yeast GPS) (PSI 1-4); higher = more stable; sorted into four equal gates, so the index is relative within each strain
Summary of the method: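 Tiled 17-residue yeast protein peptides were fused downstream of GFP in a plasmid that also expresses Cherry, and the pooled library was carried in yeast. Mid-log cultures in leucine-free medium were sorted into four equal gates by GFP/Cherry fluorescence ratio, and plasmids from each gate were PCR-amplified and Illumina-sequenced, with reads assigned to strains by barcodes. The protein stability index for each peptide was each gate's read frequency times its gate number, summed.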

Row | Sequence | protein stability index (doa10∆) | protein stability index (pdr5∆) | protein stability index (san1∆) | protein stability index (ubr1∆)
1 | YSPIEKESPWKILMYQY [RRP6] | 1.75 ± 0.063 | 1.89 ± 0.062 | 1.35 ± 0.11 | 1.44 ± 0.054
2 | CGHRILLKARTKRLVQF [RPC10] | 1.43 ± 0.11 | 1.99 ± 0.13 | 1.68 ± 0.18 | 1.22 ± 0.052
3 | LRLSNFFTIDHFIQKLH [SIR2] | 2.32 ± 0.085 | 2.2 ± 0.07 | 2.23 ± 0.074 | 2.05 ± 0.068
4 | HPAYLFKGLETPLKARQ [YLR018C/POM34] | 2.16 ± 0.073 | 2.26 ± 0.057 | 1.36 ± 0.077 | 2.08 ± 0.043
5 | RGREEAASFKKLYKTPI [PRE10] | 2.6 ± 0.17 | 3.06 ± 0.27 | 1.45 ± 0.2 | 2.97 ± 0.13
6 | ELENSSPELKAELRPLQ [RPS7A] | 3.04 ± 0.24 | 3.53 ± 0.11 | 2.97 ± 0.15 | 3.64 ± 0.15
7 | FIENFLTNDTFEKKLSI [YML103C/NUP188] | 3.18 ± 0.22 | 3.12 ± 0.12 | 3.2 ± 0.18 | 3 ± 0.093
8 | DIDDILKKGEQKTQELN [ISW2] | 3.31 ± 0.22 | 3.21 ± 0.1 | 3.44 ± 0.099 | 3.56 ± 0.092
9 | NIDTITDAMTESQPKQT [MCD1] | 2.71 ± 0.14 | 3.02 ± 0.11 | 3 ± 0.076 | 3.32 ± 0.087
10 | HPTVVDAIDNSDEITQD [IRR1] | 3.22 ± 0.093 | 3.17 ± 0.071 | 3.23 ± 0.068 | 3.15 ± 0.052
11 | MAVKTGIAIGLNKGKKV [RPL36B] | – | 1.49 ± 0.2 | – | –
12 | SESGSKLNVDQFISSRQ [POP1] | 3.27 ± 0.058 | 3.37 ± 0.063 | 3.29 ± 0.055 | 3.21 ± 0.068
13 | EEGETSRPLKKVKILEQ [SWI3] | 3.01 ± 0.11 | 3.28 ± 0.092 | 2.86 ± 0.08 | 3.03 ± 0.053
14 | AISGKKTTYYYYNEEGI [RPC82] | 2.61 ± 0.067 | 2.97 ± 0.14 | 2.8 ± 0.056 | 3.06 ± 0.076
15 | REKVRKLSQYVQEMALG [FAS2] | 2.86 ± 0.11 | 3.41 ± 0.11 | 3.15 ± 0.071 | 3.24 ± 0.067
16 | AICRYANVIKALAFCEI [RRP4] | 1.42 ± 0.069 | 2.04 ± 0.099 | 1.66 ± 0.18 | 2.22 ± 0.072
17 | LLPTIKRTICKKCHRLL [RPR2] | 2.32 ± 0.065 | 2.36 ± 0.054 | 2.26 ± 0.11 | 2.34 ± 0.034
18 | KRADISKRRITEELSIT [SMC1] | 1.46 ± 0.086 | 1.73 ± 0.078 | 1.72 ± 0.12 | 1.83 ± 0.08
19 | KTMIKTIEKDKMKIQET [SMC2] | 2.85 ± 0.17 | 1.86 ± 0.14 | 1.64 ± 0.12 | 2.04 ± 0.062
20 | KKWNDLKNKNFKCQEKD [SIR2] | 3.46 ± 0.23 | 3.34 ± 0.14 | 3.37 ± 0.072 | 3.11 ± 0.12
21 | SESKDSDKPSLPSAVDG [YLR335W/NUP2] | 3.41 ± 0.1 | 3.38 ± 0.1 | 3.28 ± 0.11 | 2.95 ± 0.15
22 | KVDINADSAVNRQTLMF [PRP28] | 3.32 ± 0.06 | 3.32 ± 0.072 | 3.08 ± 0.055 | 3.17 ± 0.052
23 | LIARRDDESPRFVMPNQ [RRP6] | 3.27 ± 0.082 | 3.32 ± 0.07 | 3.21 ± 0.081 | 3.21 ± 0.061
24 | IEEQGWGGFPLDISVFL [TAF14] | 3.38 ± 0.063 | 3.4 ± 0.053 | 3.35 ± 0.048 | 3.33 ± 0.047
25 | AESEWNGVNVQTLKGVG [RPC37] | 1.23 ± 0.075 | 1.79 ± 0.14 | – | 1.13 ± 0.18

Row | Sequence | protein stability index (doa10∆) | protein stability index (pdr5∆) | protein stability index (san1∆) | protein stability index (ubr1∆)
26 | NLENMSIQDTSTVAKNV [YCG1] | 3.01 ± 0.052 | 3.12 ± 0.051 | 3.1 ± 0.04 | 3.21 ± 0.041
27 | QDSTSENVKIINYLLTL [RPN2] | 3.42 ± 0.074 | 3.1 ± 0.079 | 3.16 ± 0.071 | 2.9 ± 0.12
28 | QVLNRYTYSSTLSHLRR [RPB2] | 2.88 ± 0.043 | 2.83 ± 0.041 | 2.77 ± 0.041 | 2.81 ± 0.03
29 | QLKNGLLEKYNTNELKE [MTR3] | 2.97 ± 0.055 | 2.69 ± 0.056 | 3.08 ± 0.05 | 2.65 ± 0.045
30 | YDNIDIQRGRILPTDGS [RPB7] | 3.05 ± 0.28 | 3.06 ± 0.18 | – | 2.94 ± 0.24
31 | GMNLLSNLSQNVVPYHR [SWI1] | 1.88 ± 0.079 | 2.88 ± 0.1 | 2.46 ± 0.098 | 2.43 ± 0.065
32 | RLKQVFNRALDQSISKL [NNF1] | 2.05 ± 0.056 | 2.11 ± 0.039 | 1.93 ± 0.043 | 2.16 ± 0.036
33 | TSRVTGILLLDSLIQLA [YJL039C/NUP192] | 1.85 ± 0.062 | 1.77 ± 0.056 | 1.59 ± 0.094 | 1.95 ± 0.048
34 | YPVRIPRLDTSKEFSAY [YJR042W/NUP85] | 2.84 ± 0.077 | 2.4 ± 0.061 | 2.51 ± 0.075 | 2.91 ± 0.058
35 | TGRLFQVEYALEAIKQG [PRE5] | 2.94 ± 0.11 | 2.5 ± 0.15 | 3.16 ± 0.17 | 2.26 ± 0.12
36 | ALTRGEALLVVLVSSVT [RPS12] | – | 3.63 ± 0.26 | 3.52 ± 0.24 | 3.29 ± 0.26
37 | EFDEQYGTRPLVLPPVV [SNF2] | 3.08 ± 0.071 | 2.69 ± 0.063 | 2.86 ± 0.061 | 2.53 ± 0.046
38 | KGGSLYGLGLIYAGFGR [RPN2] | 2.15 ± 0.095 | 2.28 ± 0.086 | 2.35 ± 0.063 | 2 ± 0.062
39 | NTSAKNKNGENKKIGKR [SIR4] | 3.02 ± 0.27 | 3.19 ± 0.14 | 3.03 ± 0.21 | –
40 | YENIPIYATFLNESDCL [YDL116W/NUP84] | 2.16 ± 0.098 | 2.54 ± 0.15 | 2.15 ± 0.15 | 2.62 ± 0.1
41 | VGKLFRVGVVSILEAGD [RPL30] | 1.99 ± 0.097 | 1.36 ± 0.093 | 1.58 ± 0.17 | 1.67 ± 0.081
42 | ALSQSSLLKTKLKQQSS [RRI1] | 2.13 ± 0.037 | 2.51 ± 0.035 | 2.22 ± 0.048 | 2.26 ± 0.035
43 | DYYYEDAGSNQYYVTQH [SWI1] | 3.15 ± 0.1 | 3.34 ± 0.082 | 3.09 ± 0.14 | 3.22 ± 0.095
44 | YLKDNITLLTRQRELLI [GRR1] | 2.15 ± 0.061 | 2.25 ± 0.069 | 1.84 ± 0.076 | 1.76 ± 0.052
45 | RDVYVFDKVEVQVRSVM [DIS3] | 2.92 ± 0.067 | 3 ± 0.068 | 3.33 ± 0.052 | 3.24 ± 0.071
46 | GLCGAGTNNARLAQLLR [RPN1] | 2.44 ± 0.068 | 1.79 ± 0.047 | 1.4 ± 0.13 | 1.16 ± 0.042
47 | ISSSAIPYSRNAPAWFK [RPS13] | 2.33 ± 0.09 | 2.9 ± 0.071 | 2.21 ± 0.086 | 2.37 ± 0.063
48 | ATPPLKRFKDMEYLSGG [SMC1] | 2.93 ± 0.13 | 2.89 ± 0.09 | 2.99 ± 0.047 | 3.01 ± 0.063
49 | IDNSPQAISYLHKLQRM [GRR1] | 2.96 ± 0.058 | 2.48 ± 0.047 | 2.4 ± 0.045 | 2.69 ± 0.039
50 | LKKIRAHRGIRHFWGLR [RPS18A] | 3.03 ± 0.11 | 2.74 ± 0.078 | 2.44 ± 0.079 | 2.62 ± 0.05

Reference: the supplement of paper PMC9732359
